Data reported in US20030082135A1, “Pathway of RANTES-mediated chemokine synthesis in astrocytes and methods of use therefor” (priority 2001, published 2003).
Values belong to the molecule of their own block, whether it stands above or below them.

Assays:
astrocytes [1] = system: astrocytes
PKA = PKA activity assay on lysates of treated astrocytes; format: cell-based, mouse
Protocol: PKA activity assay. PKA activity was determined using a commercially available kit (Calbiochem, San Diego, Calif.) according to manufacturer's recommendations. Primary mouse astrocytes were grown in 6-well plates and then stimulated as described and lysed in 100 μl buffer (same buffer used for Western blotting) for 30 min. Five μl of the lysates were incubated with 20 μl PKA reaction mixture at 30° C. for 30 min. The reaction was terminated by adding 10 μl stop solution and ^32P radioactivity was counted.

[2] = system: MEK, ERK1/2, p90RSK, p38, SAPK/JNK phosphorylation in astrocytes; assay: Western blotting of phosphorylated MAP kinase pathway proteins in astrocyte lysates; format: cell-based, mouse
Protocol: SDS-PAGE and Western blotting. Astrocytes were treated for the indicated time with media or 100 ng/ml RANTES, eotaxin, or other materials as indicated. Cells (3×10^5 in Examples 1-3, or 2×10^4 in later Examples) were resuspended in 100 μl buffer (50 mM HEPES, pH 7.5, 150 mM NaCl, 2 mM EDTA, 2 mM EGTA, 1% Triton X-100, 50 mM Sodium fluoride, 5 mM Sodium pyrophosphate, 50 mM Sodium β-glycerophosphate, 1 mM Sodium Ortho-vanadate, 1 mM DTT, 1 mM PMSF, 10 μg/ml Leupeptin, and 10 μg/ml Aprotinin). Protein concentration of the whole cell extract was determined by BCA protein assay kit (Pierce, Rockford, Ill.). Samples (10 μg) were loaded and separated on a 10% SDS-polyacrylamide gel. After transfer to Hybond ECL nitrocellulose membrane (Amersham Pharmacia Biotech Inc, Piscataway, N.J.) or Zeta-probe blotting membranes (Bio-Rad, Richmond Calif.) blots were blocked overnight with 5% BSA at 4° C., and probed with the antibody indicated. Antibody against unphosphorylated or phosphorylated erk (Cell Signaling, Beverly, Mass.) was used at 1 μg/ml. Appropriate anti-immunoglobulin reagents were used to develop the blots by enhanced chemiluminescence (Amersham Pharmacia Biotech Inc, Piscataway, N.J.).
Little is known about the signaling mechanisms involved in astrocyte respones to chemokines. To examine components of the RANTES signal transduction pathway, phosphorylation of the MAP kinase kinase (MEK) and mitogen activated protein (MAP) kinases was examined. To minimize basal kinase activity, astrocytes were starved of serum for at least 3 h before treatment with chemokine. Whole cell lysates were separated by SDS-PAGE and examined by Western blot. Antibodies that specifically react with phosphorylated MEK or phosphorylated extracellular signal-related kinase (ERK) were used to detect the active kinases.

[3] = system: primary neonatal mouse astrocyte cultures; assay: RNase protection assay (RPA) for chemokine/cytokine transcripts in astrocyte cultures; format: cell-based
Protocol: Astrocyte isolation and culture. […] RNA isolation and RNase protection assay (RPA). […] RNase protection assays (RPA) for chemokine message were conducted with multi-probe templates according to the manufacture's protocol (RiboQuant assay kit, BD-PharMingen, San Diego, Calif.). Gels were scanned and radioactive bands quantitated using a phosphoimager (Molecular Dynamics, Sunnyvale, Calif.). Levels of uniformly expressed housekeeping genes large ribosomal subunit protein 32-3A (L32) or glyceraldehyde-3-phosphate dehydrogenase (GAPDH), were used for normalization. The value of each chemokine receptor band divided by the value of the indicated housekeeping gene band in the same sample yielded the relative intensity. Normalized receptor expression represents the ratio of the relative intensity following treatment with chemokine versus the relative intensity of medium alone. Treatment with pharmacological inhibitors. Astrocytes were washed and resuspended in serum-and insulin-free complete medium and starved overnight. Cells were treated at 37° C. for 1 h with 100 ng/ml Pertussis toxin (PTx) before addition of RANTES or IL-1. […] The cells were harvested after a 3 h incubation with RANTES; RNA was prepared and assayed by RPA.

astrocytes [4] = assay: ELISA of KC, TNF-α and MCP-1 protein in astrocyte culture supernatants; format: cell-based, mouse; settings: 48 h, 1.5 to 100 ng/ml tested
[5] = system: cultured mouse astrocytes; assay: RT-PCR for KC message in astrocytes; format: cell-based
[6] = system: CXCR4, CX3CR1, CCR1, CCR5 transcripts in astrocytes; assay: RPA for chemokine receptor transcripts in astrocytes; format: cell-based, mouse; settings: average, pooled results of 3-4 experiments
Protocol: RNA isolation and RNase protection assay (RPA). RNA was prepared as in Luo, Y., et al. 1999. J Immunol 163:3985. RNase protection assays (RPA) for chemokine message were conducted with multi-probe templates according to the manufacture's protocol (RiboQuant assay kit, BD-PharMingen, San Diego, Calif.). Gels were scanned and radioactive bands quantitated using a phosphoimager (Molecular Dynamics, Sunnyvale, Calif.). Levels of uniformly expressed housekeeping genes large ribosomal subunit protein 32-3A (L32) or glyceraldehyde-3-phosphate dehydrogenase (GAPDH), were used for normalization. The value of each chemokine receptor band divided by the value of the indicated housekeeping gene band in the same sample yielded the relative intensity. Normalized receptor expression represents the ratio of the relative intensity following treatment with chemokine versus the relative intensity of medium alone.
Treatment with the RANTES-related chemokines RANTES or eotaxin, or with TNF-α also found to down-regulate expression of CX3CR1 transcripts. In addition, CXCR4 mRNA levels were decreased, while the levels of CCR1 transcripts were elevated. In contrast, little or no regulation of CCR5 was noted. The pooled results of 3-4 experiments indicate eotaxin caused an average 60% decrease in CXCR4 (P less than 0.01) and a 70% decrease in CX3CR1 mRNA (P less than 0.02) (FIG. 8.B). The effects of RANTES stimulation were similar with an average 70 and 90% reduction in CXCR4 and CX3CR1 transcripts, respectively (P less than 0.01).

Molecule: O=C1Nc2ccc(I)cc2/C1=C/c1cc(Br)c(O)c(Br)c1 [Raf-1 inhibitor, reference compound]
effect on astrocyte viability or expression of the housekeeping genes L32 and GAPDH (astrocytes [1]): failed to affect | effect on PKA activity (PKA): neither U0126 nor Raf-1 inhibitor decreased PKA activity | effect on MEK and erk1/2 phosphorylation induced by RANTES [2]: blocked | effect on RANTES-induced chemokine/cytokine gene expression ([3]; increasing doses, 1 h pretreatment, 100 ng/ml RANTES 3 h): blocked gene expression in a dose dependent fashion

decrease in CX3CR1 mRNA [6]: 70% | decrease in CXCR4 mRNA [6]: 60% | production of chemokine transcripts by astrocytes from mice deficient for CCR1, CCR2, CCR3, or CCR5 ([3]; 100 ng/ml): specifically responded | expression of TNF-α, RANTES, KC, MIP-1α, MIP-2, and MCP-1 transcripts ([3]; BALB/cJ neonatal astrocytes, chemokine for 6 h): up-regulated
B1: eotaxin: recombinant mouse chemokine, RANTES-related, purchased from R&D System (protein, UniProt P48298 24-97, looked up)
Eotaxin: HPGSIPTSCCFIMTSKKIPNTLLKSYKRITNNRCTLKAIVFKTRLGKEICADPKKKWVQDATKHLDQKLQTPKP
concentration inducing KC protein (astrocytes [4]): ≥ 25 ng/mL | synthesis of KC message [5]: induce synthesis of KC message | ability to induce chemokine transcripts after boiling ([3]; boiled for 30 min before incubation with astrocytes): completely destroyed
